Source: US20240307488A1, “ANNEXIN TO INHIBIT BACTERIA” (priority 2023, published 2024)

B1: bovine annexin A4 (protein, UniProt P13214 2-319, looked up)
Annexin A4: AAKGGTVKAASGFNAAEDAQTLRKAMKGLGTDEDAIINVLAYRSTAQRQEIRTAYKTTIGRDLMDDLKSELSGNFEQVILGMMTPTVLYDVQELRKAMKGAGTDEGCLIEILASRTPEEIRRINQTYQLQYGRSLEDDIRSDTSFMFQRVLVSLSAGGRDESNYLDDALMRQDAQDLYEAGEKKWGTDEVKFLTVLCSRNRNHLLHVFDEYKRIAQKDIEQSIKSETSGSFEDALLAIVKCMRNKSAYFAERLYKSMKGLGTDDDTLIRVMVSRAEIDMLDIRANFKRLYGKSLYSFIKGDTSGDYRKVLLILCGGDD

Columns and labels:
[1] = system: E. coli strain BL21(DE3); assay: dark field light microscopy of antibiotic-driven bacterial filament formation and filament length measurement; type: cell-based
Excerpt: Use of dark field light microscopy to monitor antibiotic-driven bacterial filament formation.
In bright field light microscopy, the filaments formed by bacteria in the presence of beta-lactam antibiotics are difficult to distinguish from “floaters” in the eyes of the microscopist. […] The light micrographs provided herein were all obtained by darkfield light microscopy. […] Therefore, transmission electron microscopy was also used in some cases for visualization of cell ultrastructure.
Darkfield light microscopy of bacterial cultures was performed with a Nikon Labophot microscope (Nikon Instruments, Melville, New York) with a dark field condenser (dry) and an e plan40×/0.65 Nikon objective.
of the inducer IPTG (Isopropyl β-d-1-thiogalactopyranoside). However, protein expression from this plasmid can have significant baseline expression without the inducer. […] Accordingly, all of the imaging and experiments described in this report were performed without adding the inducer, which avoided these problems.
Five ml precultures in LB medium with 200 μg/ml ampicillin were seeded with colonies from LB-ampicillin agar plates and incubated on a rotator overnight at 34 degrees C. […] Slides were rested for 2 to 5 minutes to allow the cells to settle before observation. Nonetheless, the cells were not tightly adherent to the slides and occasionally some cells moved slightly during imaging resulting in a double image. Cultures were checked and micrographs taken at 5 to 20 min intervals for up to 4 hours. Occasionally during this period, the culture tubes were briefly inserted into a Genesys 20 spectrophotometer (Thermospectronic, Rochester, NY) and the absorbance at 600 nm was recorded to measure culture density. The culture tubes have a circular cross section with an inside diameter of 1.3 cm, so the absorbances recorded were approximately 30% higher than would have been measured in a square cuvette with a one cm pathlength.
For preparation of the micrographs in FIGS. 1 through 3 comparing the morphology of the different transformed strains, each test culture (5 ml) was inoculated at the same time with 50 ul of the saturated overnight preculture. For display in the Figures, photographs taken after approximately the same period of growth of each of the parallel cultures were obtained when 20 μl samples provided a microscope image containing a broad sampling of the cell morphologies seen without overcrowding.
The lengths of the bacterial filaments were measured using the Image J program (NIH) with the dark field light micrographs. […] The longest dimension of each cell or filament was taken to represent the “length” for the analysis. Forty to 90 filaments were measured from each of the sub-images in FIGS. 1 and 2.

[2] = system: E. coli BL21(DE3) cells; assay: electron microscopy of cells expressing wild type or mutant annexins A4; type: cell-based; conditions: 200 μg/ml ampicillin and 4 μg/ml piperacillin; FIG. 4
Excerpt: E. coli samples selected for ultrastructural analysis were processed for electron microscopy using technical support and instrumentation in the Advanced Microscopy Facility at the University of Virginia School of Medicine. The following reagents for electron microscopy were obtained from Electron Microscopy Sciences (Hatfield, PA): sodium cacodylate, propylene oxide, EPON, uranyl acetate, and lead citrate.
One ml samples of cell cultures were pelleted in a microcentrifuge and resuspended in 2.5% glutaraldehyde in 10 mM phosphate buffer (pH7.4) and held overnight at 4 degrees C. The cells were then washed in 0.1 M sodium cacodylate, 2 times, 10 minutes per wash. Then the samples were completely immersed in 1% osmium tetroxide (OsO4) in 0.1 M sodium cacodylate and incubated at room temperature for 1 hour. Following this incubation, the samples were rinsed in 0.1 M sodium cacodylate, 2 times, 10 minutes per wash. Next samples were dehydrated sequentially in 50%, 70%, 95%, 100% ethanol for at least 10 minutes each. Samples were then rinsed in 1:1 ethanol:propylene oxide and incubated for 10 min in the same mixture, then for 10 min in 100% propylene oxide. Following removal of the final propylene oxide, samples were incubated in a 1:1 propylene oxide:EPON mixture overnight, followed with 1:2 propylene oxide:EPON and 1:4 propylene oxide:EPON, 4 hours each. […]

[3] = system: bovine chromaffin granule (secretory vesicle) membrane; conditions: from Nelson and Creutz [17], Table 4; cited from earlier work
[4] = E. coli expressing construct, grown in ampicillin (200 μg/ml), FIG. 1
[5] = ampicillin (200 μg/ml) plus piperacillin (4 μg/ml), FIG. 2

Row | Molecule | propensity to promote the formation of long, stable filaments ([1]; compared with ampicillin and piperacillin) | relative abundance of short cells and filamentous forms in electron micrographs [2] | AVG μm: average length of the measured filaments [1, 4] [μm] | MAX μm: length of the longest filament in the micrograph [1, 4] [μm] | optical density (A600) of the cultures with or without the annexin ([1]; ampicillin (200 μg/ml)) | promotion of cytokinesis (grouping of constructs) ([1]; ampicillin (200 μg/ml)) | filament formation ([1]; ampicillin (200 μg/ml) plus cephalexin (25 μg/ml)) | promotion of cytokinesis (grouping of constructs) ([1]; ampicillin (200 μg/ml) plus piperacillin (4 μg/ml)) | AVG μm: average length of the measured filaments [1, 5] [μm] | MAX μm: length of the longest filament in the micrograph [1, 5] [μm] | stability of the filaments after tenfold dilution of cephalexin ([1]; cephalexin reduced from 25 to 2.5 μg/ml after 3 hours 20 minutes, observed for two hours) | concentration of calcium leading to half-maximal binding to a biological membrane [3]
1 | CC1=C(C(=O)O)N2C(=O)[C@@H](NC(=O)[C@H](N)c3ccccc3)[C@H]2SC1 [cephalexin, reference compound] | greatest propensity to promote the formation of long, stable filaments | – | – | – | – | – | – | – | – | – | – | –
2 | B1 | – | number of short cells exceeds the number of extended filamentous forms | 5.279 | 15.03 | similar | promoted cytokinesis | long filamentous cells were formed | promoted cytokinesis | 5.052 | 9.472 | completely stable | 5.0×10^−6 M
